Reference: the nanobody polyreactivity screen of Harvey et al. (2022)

Assay: yeast display, Sf9 membrane polyspecificity reagent, FACS + sequencing; frameworks hold sequencing errors
Summary of the method: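 Genes from sorted yeast were amplified by colony PCR, read by MiSeq 2 × 250 sequencing and filtered on CDR length. These cells carried a synthetic nanobody library in Saccharomyces cerevisiae BJ5465 and were sorted by FACS into low and high (top ~1%) gates on anti-HA and streptavidin fluorescence. Polyreactivity is labelled according to the gate of origin.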
In the case of “QVKLVESGAGLVQAGGSLRLSCAASALSFYYYAMGWYRQAPGKERELVASITGGDSTNYADSVKGRFTISRDNAKNTVYLQMNSLKPEETAVYYCADEFYVSSYGYRTYDYYYWGQGTQVTVSS”, the “polyreactivity (PSR sort gate)” value is reported as “low polyreactivity”.
With “QVQLVESGGGLVQAGGSLRLSCAASGSIIDYNVMGWYRQAPGKEREFVAGISSTGGSTYYADSVKGRFSNSRDNAKHTVYLQMNSLKPEDTAVYYCAAYWNRAFRLDYWGQGTQVTVSS” the “polyreactivity (PSR sort gate)” value was “high polyreactivity”.
In the case of “QVQLLESGGGLVQAGGSLRLTCAASGFIFDQYGMGWYRQAPGKERELVASITSTGSTYYADSVKGRFTISRDNAKNTVYLQMNSLKPEDTAVYYCATDSYDGMDYWGHGTQVTVSS”, the “polyreactivity (PSR sort gate)” value is reported as “low polyreactivity”.
With “QVQLVESGGGLVQAGGTLRLSCAASGIIFDRNVMGWYRQAPGKERELVAAITRNGGNTYYADSVKGRFTISRDNAKNTVYLQLNSLKPEDTAVYYCNAKYWPFSRWYYFWGQRTQVTVSS” the “polyreactivity (PSR sort gate)” value was “high polyreactivity”.
In the case of “QVQLVESGGGLVQAGGSLRLSCAASGSIFTFYAMGWYRQAPGKERELVATITWSGGSTFYADSVKGRFTISRDNAKNTVYLQMNSLKPEDTAVYYCAAYRVDYSDAYYYWGQGTQVTVSS”, the “polyreactivity (PSR sort gate)” value is reported as “low polyreactivity”.
In the case of “QVQLVESGGGLVQAGGSLRLSCAASGIIFREYAMGWYRQAPGKERELVAAISKSGGSTYYADSVKGRFTISRDNAKNTVYLQMNSLKPEDTAVYYCAARLGTFSIPMYYWGQGTQVTVSS”, the “polyreactivity (PSR sort gate)” value is reported as “high polyreactivity”.
For “QVQLVESGGGLVQAGGSLRLSCAASGRIFWSYAMGWYRQAPGKEREFVAVITWSGGSTYYADSVKGRFTISRDNAKNTVYLQMNSLKPEDTAVYYCAAGQWWYQVRFDYWGQGTQVTVSS”, the “polyreactivity (PSR sort gate)” value was “low polyreactivity”.
In the case of “QVQLVESGGGLVQAGGSLRLSSAASGFIFATYAMGWYRQAPGTERELVAAISQSGGGTYYADSVKGRFTISRDNAKNTVYLQMNSLKPEDTAVYYCAVDVSEWYHYDLYYWYYYWGQGTQVTVSS”, the “polyreactivity (PSR sort gate)” value is reported as “high polyreactivity”.
For “QVQLVESGGGLVQAGGSLRLSCAASGRIFRYYVMGWNRQAPGKERELVATITSGGSTNYADSVKGRFTISRDNAKNTVYLQMNSLKPEDTAVYYCAAEKVSGQGEMDYWGQGTQVTVSS”, the “polyreactivity (PSR sort gate)” value was “low polyreactivity”.
With “QVQLVESGGRLLQAGGSLRLSCAASGIIFVYYDMGWYRQAPGKERELVAVITESGVSTYYADSVKGRFTISRDNAKKTVYLQMNSLKPEDTAVYYCDTSVDRGLGYWGQGTQVTVSS” the “polyreactivity (PSR sort gate)” value was “low polyreactivity”.
In the case of “QVQLVESGGGLVQAGGSLRLSSAASGSTIRTNAMGWYRQAPGKATELVAAISKSGGRTYYADSVKGRFTISRDNAKNTVYFQMNSLKPEDTAVYYCNVPRDVVPKVRAHDYWGQGTQVTVSS”, the “polyreactivity (PSR sort gate)” value is reported as “high polyreactivity”.
With “QVQLVESGGGLVQAGGSLRLSCAASGRIFEVYDMGWYRQAPGKERELVAAISESDDNTYYADSVKGRFTISRDNAKNTVYLQMNSLKPEDTAVYYCNADVPGDTGWWGFDYWGQGTQVTVSS” the “polyreactivity (PSR sort gate)” value was “low polyreactivity”.
With “QVQLVESGGGLVQAGGSLRLICAASGSIFRYYVKGWYRQAPGKERELVASISYSVGRTYYADSVKGRFTISRDYAKNTVYLQMNSLKPEDTAVYYCAADRYWPYYSAYYTSYRMDYWGQGTQVTVSS” the “polyreactivity (PSR sort gate)” value was “high polyreactivity”.
For “QVQLVESGGGLVQAGGSLRLSCAASGSTFESNAMGWSRPAPGKEREFVAAITSGGSTDYADSVKGRFKISRDNAKNTVYLQMNSLKPEDTAVYYCAKGTFDLHYRKRYNYWGQGTQVTVSS”, the “polyreactivity (PSR sort gate)” value was “low polyreactivity”.
In the case of “QVQLVESGGGLVQAGGSLRLSCAASGFIFYGYMGWYRQAPGKERELVAAISYTGGSTYYADSVKGRFTISRDNAKNTVYLQMNSLKPEDTAVYYCARDWRTKWFGYWGQGTQVTVSS”, the “polyreactivity (PSR sort gate)” value is reported as “low polyreactivity”.
For “QVQLVESGGGLVQAGGSLRLSCAASGRIFGYNDMGLYRQAPGKERELVAAINWTGGSTYYADSVKGRFTISRDNAKNTVYLQMNSLKPEDTAVYYCNADARTKWVQTHTDFITDYDYWGQGTQVTVSS”, the “polyreactivity (PSR sort gate)” value was “low polyreactivity”.
In the case of “QVQLVESGGGLVQAGGSLRLSCAASGFIFKGNAMGWSRQAPGKERELVAAISSRGGSTYYADSVKGRFTISRDNAKNTVYLQMNSLKPEDTAVYYCATRVYWRNDYWGQGTQVTVSS”, the “polyreactivity (PSR sort gate)” value is reported as “high polyreactivity”.
For “QVHLVESGGCLVQAGGSLRLSCSASGSIFGWYAMGWYRQAPGKEREFVAAISYSGGSTYYADSVKGRFTNSRDIAKITVYLQINSLKPEDTAVYYCNARPYWYFPYRVPEGYDYWGQGTQVTVSS”, the “polyreactivity (PSR sort gate)” value was “high polyreactivity”.
For “QVQLVESGGGLVQAGGSLRLSCAASGITFYYNAMGWYRQAPGKERELVATINDSDGSTYADSVKGRFTISRDNAKNTVYLQMNSLKPEDTAVYYCNAQTRAGYYFGYGYWGQGTQVTVSS”, the “polyreactivity (PSR sort gate)” value was “low polyreactivity”.
With “QVQLVESGGGLVKAGGSLRLSFAAYGSNFPRYALGWYRQATGKERELVASITSDGGSTYYADSVKGRFTISRDNAKNTVYLQMNSLKPEDTAVYYCNKVPYRGYRRYGYWGQGTQVTVSS” the “polyreactivity (PSR sort gate)” value was “high polyreactivity”.
In the case of “QVQLQGSGGGLAQAGDSLRLSSEASGTIFSEYNNGLVSPGAGQRTRTCCRYWCWGNTYYPDSAKGRFTTSLDNAKNTVYLQKNSLKPEDTEVYYCAFNRPYPSRHIYRGQGTQVTVSS”, the “polyreactivity (PSR sort gate)” value is reported as “high polyreactivity”.
In the case of “QVQLVESGGGLVQAGGSLRLSCAASGSTFVWYAMVWYRQAPGKEREFVATISWSDGSTYYADSVKGRFTISRDNAKNTVYLLMNSLKPEVTAVYYCASDVDRFFSYKYDYWGQGTQVTVSS”, the “polyreactivity (PSR sort gate)” value is reported as “low polyreactivity”.
In the case of “QVQLVESGGGLVQAGGSLRLSCAASGFTFRFYAMGWYRQAPGKERELVAGISSSGGTTYYADSVKGRFTISRDNAKNTVYLQMNSLKPEDTAVYYCNRRFLPAEQYTKKYYYWGQGTQVTVSS”, the “polyreactivity (PSR sort gate)” value is reported as “high polyreactivity”.
With “QVQHVESGGGLVQAGGSLRLSCAAYGFTFVRYAKGWYRQAPGKEREFVASISARGGNTFYADSVKGRFTISRDNAKNTVFLQMNSLKPEDTAVYYCAKRGPYGTGYGYWGQGTQVTVSS” the “polyreactivity (PSR sort gate)” value was “high polyreactivity”.
With “QVQLVETGGGLVQAGGSLRLSCAASGITFFEYAMGWYRQAPGKERELVAGIRYSGSTTYYSDSVKGRFTISRDNAKNTVYLQMNSLKPEDSAVYYCNVDYYSGLYDYYSWGQGTQVTVSS” the “polyreactivity (PSR sort gate)” value was “low polyreactivity”.
In the case of “QVQLVESGGGLVQAGVSLRISCAASGSTFRGYVMGWYRPAPGKERELVAAISRSGTSTYYADSVKGRFTISRDNAKNTVYLQINSLKPEDTAVYYCAAQLYGHGEDYWGQGTQVTVSS”, the “polyreactivity (PSR sort gate)” value is reported as “high polyreactivity”.
For “QVQLVESGGGLVQAGGSLRLSCAASGSIFGFYGMGWYRQAPGKERELVAAISSRGGNTYYADSVKGRFTISRDNAKNTVYLQMNSLKPEDTAVYYCNAYRYVRHYSFDYWGQGTQVTVSS”, the “polyreactivity (PSR sort gate)” value was “high polyreactivity”.
In the case of “QVQLVESGGGLVQAGGSLRLSCAASGSIFTVYAMGWYRQAPGKESELVASIRFSSGRTYYADSVKGRFTISRDNAKNTVYLQMNSLKQEDTAVYYCASETVSWYRYYYWGQGTQVTVSS”, the “polyreactivity (PSR sort gate)” value is reported as “high polyreactivity”.
With “QVQLVESGGGLVQAGGSLRLSCAASGSTFVDYAMGWYRQAPGKERELVAGITSGGSTNYADSVKGRFTISRDNAKNTVYLQMNSLKPEDTAVYYCNADPGQDTPGGISDEWYSVWLEYDYWGQGTQVTVSS” the “polyreactivity (PSR sort gate)” value was “low polyreactivity”.
In the case of “QVQLVESGGGLVQAGGSLRLSCAASGFTFNKNAMGWYRQEPRKERELVAAISSSVGSTRYADSVKGRFTISRDNAKNTVYLQRNSLKPEDTAVYYCAVYVTPHSGWWLYDYWGQGTQVTVSS”, the “polyreactivity (PSR sort gate)” value is reported as “high polyreactivity”.
For “QVQLVESGRGLVQAGGSLRLSCAACGSIFVYNDRGCYRQAPGKERELVAAISASGGRTYSADSVKGRFTISRDNAKNTVYLQMNSLKPEDTAVYYCAKDWLWGPEYDYWGQGTQVTVSS”, the “polyreactivity (PSR sort gate)” value was “low polyreactivity”.
With “QVQLVESGGGLVQAGGSLRLSCAASGNIFIYNAMGWYRQAPGKERELVAAISVSGGDTYYADSVKGRFTISRDNAKNTVYLQMNSLKPEDTAVYYCAAEAEYIELDYWGQGTQVTVSS” the “polyreactivity (PSR sort gate)” value was “low polyreactivity”.
For “QVQLVESGGGLDQAGGSLRLSCAASGRIFSYYAMGWYRQAPGKERELVAVISRRGDNTYYADSVKGRFTISRDNAKKTVYFQMNSLKPEDTAVYYCAARFGYLTFYSSGYYWGQGTQVTVSS”, the “polyreactivity (PSR sort gate)” value was “high polyreactivity”.
For “QVQLVESGGGLVQAGGSLRLTCAASGLTFNYYAMGWYRQAPGKERELVAAISSDGRTDYADSVKGRFTISRDNAKNTVYLQMNSLKPEDTAVYYCAASWYRWGKSWRQYDYWGQGTQVNVSS”, the “polyreactivity (PSR sort gate)” value was “low polyreactivity”.
With “QDQLVESGGGLVQAGGSLRLSCASSGYIFYYNAMGWYRQAPGKEWELVAAITGDSGTYYADSVKGRFTISRDNAKNTFYFQMNCLKPEDTAVYYCNAYTFYQYYRWYVYWGQVTQVTVSS” the “polyreactivity (PSR sort gate)” value was “low polyreactivity”.
With “QVQLVESGGGLVQAGGSLRLSCAASGRTFYLYAMGWYRQAPGKERELVAAINTNGARTYYADSVKGRFTISRDHAKNTVYLQMNSLIPEDTAVYYCNADAYRVIANWIYDYWGQGTQVTVSS” the “polyreactivity (PSR sort gate)” value was “low polyreactivity”.
For “QVQLVESGGGLVQAGGSLRLSCAASGYTFPFYTMGWYRQAPGKERELVAAINSGGSTYYADSVKGRFTISRDNAKNTVYLQMNSLKPEDNAVYYCAVEGGFRVRYQAQYRYYYCGQGTQVTVSS”, the “polyreactivity (PSR sort gate)” value was “high polyreactivity”.
In the case of “QVQLVESGGGLFQAGRSLRLSCAASGITFGYYGMGWYRQAPVKERELVATISQRGGSTYYAVSVKGRFTISRDNAKNTVYLQMNSLKPEDTAFYYSNADAYRYYDYDLLFHYDYWGQGTQVTVSS”, the “polyreactivity (PSR sort gate)” value is reported as “low polyreactivity”.
In the case of “QVQHVESGGGLVQAGGSLRLSCAASGRTFTPYAMGWYRQAPGKEREFVAAISIVGRTKYADSVKGRFTISRDNAKNTVYLQMNSLKPEDTAVYYCNAQDSRDRKFYWGYTRGHWGQGTQVTVSS”, the “polyreactivity (PSR sort gate)” value is reported as “low polyreactivity”.
In the case of “QVQLVESGGGLVQAGGSLRLSCAASGFTFGGYAMGWYRQAPGKERELVAAISRSGGSTYYADSVKGRFIISRDNAKNTVYLQMNSLKPEDTAVYYCAAKTVSRARLYDYWGQGTQVTVSS”, the “polyreactivity (PSR sort gate)” value is reported as “high polyreactivity”.
In the case of “QVQLVESGGGLVQAGGSLRLSCAASGRIFTLYAMGWYRQAPGTERELVAAITYTGANTYYADSVKGRFTISRDNAKNTVYLQMNSLKPEDTAVYYCAASGYYYDYWGQGTQVTVSS”, the “polyreactivity (PSR sort gate)” value is reported as “high polyreactivity”.
In the case of “QVQLVESGGGLVQAGGSLRLSCAASGFIFGPYAMGWYRPAPGKERELVASISNSGDSTYADSVKGRFTISRDTAKNTVYLQMNSLKPEDTAVYYCNADGFVGTPSVDYDYWGQGTQVTVSS”, the “polyreactivity (PSR sort gate)” value is reported as “low polyreactivity”.
In the case of “QVQLVESGGGLVQAGGSLRLSCAASGRTFLANAMGWYRQAPGKERELVAAITWSGGRTNYADSVKGRFTISRDNAKNTVYLQMNSLKPEDTAVYYCAADIFYEQVVGGTDVGYHDFDYWGQGTQVTVSS”, the “polyreactivity (PSR sort gate)” value is reported as “low polyreactivity”.
